Where two headings read alike, the source gives them in different places.
Experiments:
[1] = biological target: native K^b on cells, loaded with endogenous peptides (mouse) (UniProt P01887); assay: cell-based or functional assay
[2] = biological target: OVA.β2m.Kb SCT Y84A (mouse) (UniProt P01887)
[3] = biological target: OVAp5Y.β2m.Kb Y84A SCT (mouse) (UniProt P01887)
[4] = biological target: OVA.β2m.Kb SCT Y84A (mouse) (UniProt P01887); remark: listed apart in the source

Substance VSV8 peptide has a VSV8 concentration that activates the N15 hybridoma; LM1.8 cells (FIG. 11C) [1] of 1 nM.

SIYR peptide was tested, and the IC50 [2] was 1.25 µM, the IC50 [3] was 40 µM and the IC50 [4] was 125 µM.
